From paper PMC6135765, “Redox control and autoxidation of class 1, 2 and 3 phytoglobins from Arabidopsis thaliana” (Scientific Reports, 2018)

B1: His8-MBP:AtHb3 (Arabidopsis thaliana class 3 non-symbiotic, truncated hemoglobin / phytoglobin, before tag cleavage) (natural protein, UniProt Q67XG0 1-175, looked up)
chain: MQSLQDKASVLSGVDQAEAFAIDESNLFDKLGLQTFINLSTNFYTRVYDDEEEWFQSIFSNSNKEDAIQNQYEFFVQRMGGPPLYSQRKGHPALIGRHRPFPVTHQAAERWLEHMQNALDDSVDIDQDSKIKMMKFFRHTAFFLVAGNELKNQNEKPKHKPQCACKHAANKPAEE
notes: AtHb3, class 3 non-symbiotic (truncated, 2-on-2) hemoglobin of Arabidopsis thaliana; Heme protein; Expressed from pVP16 (Gateway) with an N-terminal 8xHis:MBP double tag and a TEV site; carboxy form oxidised to the ferric form on the column; also called His8-MBP-tagged AtHb3; 8xHis:MBP:Hb3; not shown: His8, N-terminal, kept; MBP, N-terminal, kept
B2: AtHb3 (Arabidopsis thaliana class 3 non-symbiotic, truncated hemoglobin / phytoglobin, His8-MBP removed) (natural protein, UniProt Q67XG0 1-175, looked up)
chain: B1 chain
notes: AtHb3, class 3 non-symbiotic (truncated, 2-on-2) hemoglobin of Arabidopsis thaliana; Heme protein; The gene primer encodes ENLYFQ directly before the first Met, the adapter primer ENLYFQG before Met; also called class 3 nsHb; source: TEV cleavage, HisTrap removal of the tag, anion exchange; not shown: His8, N-terminal, cleaved; MBP, N-terminal, cleaved
B3: His8-MBP:AtHb1 (Arabidopsis thaliana class 1 non-symbiotic hemoglobin / phytoglobin, before tag cleavage) (natural protein, UniProt O24520 1-160, looked up)
chain: MESEGKIVFTEEQEALVVKSWSVMKKNSAELGLKLFIKIFEIAPTTKKMFSFLRDSPIPAEQNPKLKPHAMSVFVMCCESAVQLRKTGKVTVRETTLKRLGASHSKYGVVDEHFEVAKYALLETIKEAVPEMWSPEMKVAWGQAYDHLVAAIKAEMNLSN
notes: AtHb1, class 1 non-symbiotic hemoglobin of Arabidopsis thaliana; Heme protein; Expressed from pVP16 (Gateway) with an N-terminal 8xHis:MBP double tag and a TEV site; also called His8-MBP-tagged AtHb1; 8xHis:MBP:Hb1; not shown: His8, N-terminal, kept; MBP, N-terminal, kept
B4: AtHb1 (Arabidopsis thaliana class 1 non-symbiotic hemoglobin / phytoglobin, His8-MBP removed) (natural protein, UniProt O24520 1-160, looked up)
chain: B3 chain
notes: AtHb1, class 1 non-symbiotic hemoglobin of Arabidopsis thaliana; Heme protein; The gene primer encodes ENLYFQ directly before the first Met, the adapter primer ENLYFQG before Met; also called class 1 nsHb; source: TEV cleavage, HisTrap removal of the tag, size exclusion and/or anion exchange; not shown: His8, N-terminal, cleaved; MBP, N-terminal, cleaved

Molecular target: the molecule itself
Assay: SEC; analytical size exclusion chromatography of the purified proteins, before and after His8-MBP removal; apparent native size in solution
For B1, the “stoichiometry N” value was 2. For B2, the “stoichiometry N” value was 2. For B3, the “stoichiometry N” value was 2. With B4 the “stoichiometry N” value was 2.
